B1: recombinant plasmin (enzyme)
heavy: EPLDDYVNTQGASLFSVTKKQLGAGSIEECAAKCEEDEEFTCRAFQYHSKEQQCVIMAENRKSSIIIRMRDVVLFEKKVYLSECKTGNGKNYRGTMSKTKNGITCQKWSSTSPHRPRFSPATHPSEGLEENYCRNPDNDPQGPWCYTTDPEKRYDYCDILECEEECMHCSGENYDGKISKTMSGLECQAWDSQSPHAHGYIPSKFPNKNLKKNYCRNPDRELRPWCFTTDPNKRWELCDIPRCTTPPPSSGPTYQCLKGTGENYRGNVAVTVSGHTCQHWSAQTPHTHNRTPENFPCKNLDENYCRNPDGKRAPWCHTTNSQVRWEYCKIPSCDSSPVSTEQLAPTAPPELTPVVQDCYHGDGQSYRGTSSTTTTGKKCQSWSSMTPHRHQKTPENYPNAGLTMNYCRNPDADKGPWCFTTDPSVRWEYCNLKKCSGTEASVVAPPPVVLLPDVETPSEEDCMFGNGKGYRGKRATTVTGTPCQDWAAQEPHRHSIFTPETNPRAGLEKNYCRNPDGDVGGPWCYTTNPRKLYDYCDVPQCAAPSFDCGKPQVEPKKCPGR
light: VVGGCVAHPHSWPWQVSLRTRFGMHFCGGTLISPEWVLTAAHCLEKSPRPSSYKVILGAHQEVNLEPHVQEIEVSRLFLEPTRKDIALLKLSSPAVITDKVIPACLPSPNYVVADRTECFITGWGETQGTFGAGLLKEAQLPVIENKVCNRYEFLNGRVQSTELCAGHLAGGTDSCQGDSGGPLVCFEKDKYILQGVTSWGLGCARPNKPGVYVRVSRFVTWIEGVMRNN
notes: Made by cleaving rPlg with tPA; also called rPlm; recombinant Plm

How the values were obtained:
[1] = target: T1, recombinant streptokinase from Streptococcus pyrogenes (so in the source) (Streptococcus pyrogenes (so in the source)); test: SPR (Biacore T200), SK on Ni2+-NTA chip, 1:1 Langmuir model
T1 construct: Immobilised on a Ni2+-NTA chip; also called SK

recombinant plasminogen = target: T2, recombinant plasminogen (human, UniProt P00747 20-810); test: SPR (Biacore T200), α2-AP on Ni2+-NTA chip, 1:1 Langmuir model
T2 construct: also called rPlg; recombinant Plg

recombinant plasmin = target: B1; test: as above
[2] = target: T3, native plasmin (purchased from Haematologic Technologies) (UniProt P00747 97-580; P00747 581-810, limits assumed); test: as above
T3 construct: Plasmin has two disulphide-linked chains (heavy and light); also called native Plm

[3] = target: T4, native plasminogen (purchased from Merck, purified from human plasma) (human, UniProt P00747 20-810); test: SPR (Biacore T200), α2-AP on Ni2+-NTA chip, two-state reaction model; overall KD of the two-state reaction model
T4 construct: mature; also called native Plg; nPlg

[4] = target: T4, native plasminogen (purchased from …); test: SPR (Biacore T200), α2-AP on Ni2+-NTA chip, two-state reaction model, ka1; ka1, first step of the two-state model
[5] = target: T4, native plasminogen (purchased from …); test: SPR (Biacore T200), α2-AP on Ni2+-NTA chip, two-state reaction model, kd1; kd1, first step of the two-state model

Binder | Kd [1] [nM] | koff [1] [s⁻¹] | kon [1] [M⁻¹ s⁻¹] | Kd (recombinant plasminogen) [nM] | koff (recombinant plasminogen) [s⁻¹] | kon (recombinant plasminogen) [M⁻¹ s⁻¹] | Kd (recombinant plasmin) [nM] | koff (recombinant plasmin) [s⁻¹] | kon (recombinant plasmin) [M⁻¹ s⁻¹] | Kd [2] [nM] | koff [2] [s⁻¹] | kon [2] [M⁻¹ s⁻¹] | Kd [3] [nM] | kon [4] [M⁻¹ s⁻¹] | koff [5] [s⁻¹]
B1 | 0.04 | 1.6e-05 | 410000 |  |  |  |  |  |  |  |  |  |  |  | 
recombinant alpha 2-antiplasmin (other, UniProt P08697 40-491, looked up, Serpin, immobilised on a Ni2+-NTA chip; also called α2-AP; α2AP) NQEQVSPLTLLKLGNQEPGGQTALKSPPGVCSRDPTPEQTHRLARAMMAFTADLFSLVAQTSTCPNLILSPLSVALALSHLALGAQNHTLQRLQQVLHAGSGPCLPHLLSRLCQDLGPGAFRLAARMYLQKGFPIKEDFLEQSEQLFGAKPVSLTGKQEDDLANINQWVKEATEGKIQEFLSGLPEDTVLLLLNAIHFQGFWRNKFDPSLTQRDSFHLDEQFTVPVEMMQARTYPLRWFLLEQPEIQVAHFPFKNNMSFVVLVPTHFEWNVSQVLANLSWDTLHPPLVWERPTKVRLPKLYLKHQMDLVATLSQLGLQELFQAPDLRGISEQSLVVSGVQHQSTLELSEVGVEAAAATSIAMSRMSLSSFSVNRPFLFFIFEDTTGLPLFVGSVRNPNPSAPRELKEQQDSPGNKDFLQSLKGFPRGDKLFGPDLKLVPPMEEDYPQFGSPK |  |  |  | 3.4 | 0.0005 | 150000 | 0.68 | 0.00011 | 160000 | 0.85 | 0.0043 | 5.1e+06 | 9.8 | 1.1e+06 | 0.065
